{
  "source": "FireProtDB (doi:10.1002/pro.381)",
  "parents": {"B1": {"name": "Guanyl-specific ribonuclease Sa, P05798 (parent)", "chain": "DVSGTVCLSALPPEATDTLNLIASDGPFPYSQDGVVFQNRESVLPTQSYGYYHEYTVITPGARTRGTRRIITGEATQEDYYTGDHYATFSLIDQTC"}},
  "variants_of": "B1",
  "conditions": "Kitasatospora aureofaciens, pH 7, CD, MOPS 30 mM, structure 1RGG, whole UniProt chain shown",
  "data": [
    {"variant": "DVSGTVCLSALPPEATDTLNLIASKGPFPYPQDGVVFQNREGVLPTQPYGYYHEYTVITPGARTRGTRRIITGKAPGEFAYTGDHYATFSLIDQTC", "values": [
      {"measurement": "ddG of mutation (higher = less stable)", "setting": "25 °C, GdnHCl", "result": -0.1, "unit": "kcal/mol"},
      {"measurement": "denaturant m value", "setting": "25 °C, GdnHCl", "result": 2.69, "unit": "kcal/mol/M"},
      {"measurement": "denaturant midpoint (higher = more stable)", "setting": "25 °C, GdnHCl", "result": 2.74, "unit": "M"},
      {"measurement": "unfolding free energy", "setting": "25 °C, GdnHCl", "result": 7.4, "unit": "kcal/mol"},
      {"measurement": "ddG of mutation (higher = less stable)", "setting": "60 °C, Thermal", "result": 4.8, "unit": "kcal/mol"},
      {"measurement": "heat capacity change of unfolding", "setting": "60 °C, Thermal", "result": 1.29, "unit": "kcal/mol/K"},
      {"measurement": "Tm", "setting": "Thermal", "result": 58, "unit": "°C"},
      {"measurement": "change of melting temperature, mutant - wild type (higher = more stable)", "setting": "Thermal", "result": -19.2, "unit": "°C"},
      {"measurement": "heat capacity change of unfolding", "setting": "Thermal", "result": 1.29, "unit": "kcal/mol/K"},
      {"measurement": "unfolding enthalpy (van 't Hoff)", "setting": "Thermal", "result": 87, "unit": "kcal/mol"}
    ]},
    {"variant": "DVSGTVCLSALPPEATDTLNLIASKGPFPYPQDGVVFQNREGVLPTQPYGYYHEYTVITPGARTRGTRRIITGKAPGEDYYTGDHYATFSLIDQTC", "values": [
      {"measurement": "ddG of mutation (higher = less stable)", "setting": "25 °C, GdnHCl", "result": -3.9, "unit": "kcal/mol"},
      {"measurement": "denaturant m value", "setting": "25 °C, GdnHCl", "result": 2.52, "unit": "kcal/mol/M"},
      {"measurement": "denaturant midpoint (higher = more stable)", "setting": "25 °C, GdnHCl", "result": 4.44, "unit": "M"},
      {"measurement": "unfolding free energy", "setting": "25 °C, GdnHCl", "result": 11.2, "unit": "kcal/mol"},
      {"measurement": "ddG of mutation (higher = less stable)", "setting": "60 °C, Thermal", "result": -5.3, "unit": "kcal/mol"},
      {"measurement": "heat capacity change of unfolding", "setting": "60 °C, Thermal", "result": 1.68, "unit": "kcal/mol/K"},
      {"measurement": "Tm", "setting": "Thermal", "result": 66.6, "unit": "°C"},
      {"measurement": "change of melting temperature, mutant - wild type (higher = more stable)", "setting": "Thermal", "result": 17.3, "unit": "°C"},
      {"measurement": "heat capacity change of unfolding", "setting": "Thermal", "result": 1.68, "unit": "kcal/mol/K"},
      {"measurement": "unfolding enthalpy (van 't Hoff)", "setting": "Thermal", "result": 105, "unit": "kcal/mol"}
    ]},
    {"variant": "DVSGTVCLSALPPEATDTLNLIASKGPFPYPQDGVVFQNREGVLPTQPYGYYHEYTVITPGARTRGTRRIITGKAPGEAYYTGDHYATFSLIDQTC", "values": [
      {"measurement": "ddG of mutation (higher = less stable)", "setting": "25 °C, GdnHCl", "result": -4.9, "unit": "kcal/mol"},
      {"measurement": "denaturant m value", "setting": "25 °C, GdnHCl", "result": 2.4, "unit": "kcal/mol/M"},
      {"measurement": "denaturant midpoint (higher = more stable)", "setting": "25 °C, GdnHCl", "result": 5.05, "unit": "M"},
      {"measurement": "unfolding free energy", "setting": "25 °C, GdnHCl", "result": 12.1, "unit": "kcal/mol"},
      {"measurement": "ddG of mutation (higher = less stable)", "setting": "60 °C, Thermal", "result": -2.2, "unit": "kcal/mol"},
      {"measurement": "heat capacity change of unfolding", "setting": "60 °C, Thermal", "result": 1.15, "unit": "kcal/mol/K"},
      {"measurement": "Tm", "setting": "Thermal", "result": 75.3, "unit": "°C"},
      {"measurement": "change of melting temperature, mutant - wild type (higher = more stable)", "setting": "Thermal", "result": 8.7, "unit": "°C"},
      {"measurement": "heat capacity change of unfolding", "setting": "Thermal", "result": 1.15, "unit": "kcal/mol/K"},
      {"measurement": "unfolding enthalpy (van 't Hoff)", "setting": "Thermal", "result": 102, "unit": "kcal/mol"}
    ]},
    {"variant": "DVSGTVCLSALPPEATDTLNLIASKGPFPYPQDGVVFQNREGVLPTQPYGYYHEYTVITPGARTRGTRRIITGKAPGEFYYTGDHYATFSLIDQTC", "values": [
      {"measurement": "ddG of mutation (higher = less stable)", "setting": "25 °C, GdnHCl", "result": -6.3, "unit": "kcal/mol"},
      {"measurement": "denaturant m value", "setting": "25 °C, GdnHCl", "result": 2.51, "unit": "kcal/mol/M"},
      {"measurement": "denaturant midpoint (higher = more stable)", "setting": "25 °C, GdnHCl", "result": 5.4, "unit": "M"},
      {"measurement": "unfolding free energy", "setting": "25 °C, GdnHCl", "result": 13.6, "unit": "kcal/mol"},
      {"measurement": "ddG of mutation (higher = less stable)", "setting": "60 °C, Thermal", "result": -7.7, "unit": "kcal/mol"},
      {"measurement": "heat capacity change of unfolding", "setting": "60 °C, Thermal", "result": 1.07, "unit": "kcal/mol/K"}
    ]},
    {"variant": "DVSGTVCLSALPPEATDTLNLIASKGPFPYSQDGVVFQNRESVLPTQSYGYYHEYTVITPGARTRGTRRIITGKATQEDYYTGDHYATFSLIDQTC", "values": [
      {"measurement": "ddG of mutation (higher = less stable)", "setting": "25 °C, GdnHCl", "result": 0.2, "unit": "kcal/mol"},
      {"measurement": "denaturant m value", "setting": "25 °C, GdnHCl", "result": 2.61, "unit": "kcal/mol/M"},
      {"measurement": "denaturant midpoint (higher = more stable)", "setting": "25 °C, GdnHCl", "result": 2.7, "unit": "M"},
      {"measurement": "unfolding free energy", "setting": "25 °C, GdnHCl", "result": 7.1, "unit": "kcal/mol"},
      {"measurement": "ddG of mutation (higher = less stable)", "setting": "25 °C, Urea", "result": -0.8, "unit": "kcal/mol"},
      {"measurement": "denaturant m value", "setting": "25 °C, Urea", "result": 1.02, "unit": "kcal/mol/M"},
      {"measurement": "denaturant midpoint (higher = more stable)", "setting": "25 °C, Urea", "result": 6.51, "unit": "M"},
      {"measurement": "unfolding free energy", "setting": "25 °C, Urea", "result": 6.6, "unit": "kcal/mol"},
      {"measurement": "ddG of mutation (higher = less stable)", "setting": "60 °C, Thermal", "result": -0.8, "unit": "kcal/mol"},
      {"measurement": "Tm", "setting": "Thermal", "result": 51.5, "unit": "°C"},
      {"measurement": "change of melting temperature, mutant - wild type (higher = more stable)", "setting": "Thermal", "result": 2.2, "unit": "°C"},
      {"measurement": "unfolding enthalpy (van 't Hoff)", "setting": "Thermal", "result": 92, "unit": "kcal/mol"}
    ]},
    {"variant": "DVSGTVCLSALPPEATDTLNLIASKGPFPYPQDGVVFQNREGVLPTQPYGYYHEYTVITPGARTRGTRRIITGKAPGEDYYTGDHYATFSLDDQTC", "values": [
      {"measurement": "ddG of mutation (higher = less stable)", "setting": "25 °C, GdnHCl", "result": 5.1, "unit": "kcal/mol"},
      {"measurement": "denaturant m value", "setting": "25 °C, GdnHCl", "result": 2.67, "unit": "kcal/mol/M"},
      {"measurement": "denaturant midpoint (higher = more stable)", "setting": "25 °C, GdnHCl", "result": 0.83, "unit": "M"},
      {"measurement": "unfolding free energy", "setting": "25 °C, GdnHCl", "result": 2.2, "unit": "kcal/mol"},
      {"measurement": "ddG of mutation (higher = less stable)", "setting": "60 °C, Thermal", "result": 9.6, "unit": "kcal/mol"},
      {"measurement": "heat capacity change of unfolding", "setting": "60 °C, Thermal", "result": 1.41, "unit": "kcal/mol/K"},
      {"measurement": "Tm", "setting": "Thermal", "result": 34, "unit": "°C"},
      {"measurement": "change of melting temperature, mutant - wild type (higher = more stable)", "setting": "Thermal", "result": -32.6, "unit": "°C"},
      {"measurement": "heat capacity change of unfolding", "setting": "Thermal", "result": 1.41, "unit": "kcal/mol/K"},
      {"measurement": "unfolding enthalpy (van 't Hoff)", "setting": "Thermal", "result": 73, "unit": "kcal/mol"}
    ]},
    {"variant": "DVSGTVCLSALPPEATDTLNLIASKGPFPYPQDGVVFQNREGVLPTQPYGYYHEYTVITPGARTRGTRRDITGKAPGEFYYTGDHYATFSLIDQTC", "values": [
      {"measurement": "ddG of mutation (higher = less stable)", "setting": "60 °C, Thermal", "result": 9.5, "unit": "kcal/mol"},
      {"measurement": "heat capacity change of unfolding", "setting": "60 °C, Thermal", "result": 1.08, "unit": "kcal/mol/K"},
      {"measurement": "Tm", "setting": "Thermal", "result": 41.5, "unit": "°C"},
      {"measurement": "change of melting temperature, mutant - wild type (higher = more stable)", "setting": "Thermal", "result": -35.6, "unit": "°C"},
      {"measurement": "heat capacity change of unfolding", "setting": "Thermal", "result": 1.08, "unit": "kcal/mol/K"},
      {"measurement": "unfolding enthalpy (van 't Hoff)", "setting": "Thermal", "result": 78, "unit": "kcal/mol"}
    ]},
    {"variant": "DVSGTVCLSALPPEATDTLNLIASKGPFPYPQDGVVFQNREGVLPTQPYGYYHEYTVITPGARTRGTRRIITGKAPGEFYYTGDHYATFSLDDQTC", "values": [
      {"measurement": "ddG of mutation (higher = less stable)", "setting": "25 °C, GdnHCl", "result": 2.2, "unit": "kcal/mol"},
      {"measurement": "denaturant m value", "setting": "25 °C, GdnHCl", "result": 2.73, "unit": "kcal/mol/M"},
      {"measurement": "denaturant midpoint (higher = more stable)", "setting": "25 °C, GdnHCl", "result": 2.01, "unit": "M"},
      {"measurement": "unfolding free energy", "setting": "25 °C, GdnHCl", "result": 5.5, "unit": "kcal/mol"},
      {"measurement": "ddG of mutation (higher = less stable)", "setting": "60 °C, Thermal", "result": 7.1, "unit": "kcal/mol"},
      {"measurement": "heat capacity change of unfolding", "setting": "60 °C, Thermal", "result": 1.41, "unit": "kcal/mol/K"},
      {"measurement": "Tm", "setting": "Thermal", "result": 50.2, "unit": "°C"},
      {"measurement": "change of melting temperature, mutant - wild type (higher = more stable)", "setting": "Thermal", "result": -26.9, "unit": "°C"},
      {"measurement": "heat capacity change of unfolding", "setting": "Thermal", "result": 1.41, "unit": "kcal/mol/K"},
      {"measurement": "unfolding enthalpy (van 't Hoff)", "setting": "Thermal", "result": 84, "unit": "kcal/mol"}
    ]},
    {"variant": "DVSGTVCLSALPPEATDTLNLIASKGPFPYPQDGVVFQNREGVLPTQPYGYYHEYTVITPGARTRGTRRIITGKAPGEFYYTGDHYATFSLADQTC", "values": [
      {"measurement": "ddG of mutation (higher = less stable)", "setting": "25 °C, GdnHCl", "result": -1.9, "unit": "kcal/mol"},
      {"measurement": "denaturant m value", "setting": "25 °C, GdnHCl", "result": 2.78, "unit": "kcal/mol/M"},
      {"measurement": "denaturant midpoint (higher = more stable)", "setting": "25 °C, GdnHCl", "result": 3.22, "unit": "M"},
      {"measurement": "unfolding free energy", "setting": "25 °C, GdnHCl", "result": 9.2, "unit": "kcal/mol"},
      {"measurement": "ddG of mutation (higher = less stable)", "setting": "60 °C, Thermal", "result": 3.2, "unit": "kcal/mol"},
      {"measurement": "heat capacity change of unfolding", "setting": "60 °C, Thermal", "result": 1.33, "unit": "kcal/mol/K"},
      {"measurement": "Tm", "setting": "Thermal", "result": 63.9, "unit": "°C"},
      {"measurement": "change of melting temperature, mutant - wild type (higher = more stable)", "setting": "Thermal", "result": -13.3, "unit": "°C"},
      {"measurement": "heat capacity change of unfolding", "setting": "Thermal", "result": 1.33, "unit": "kcal/mol/K"},
      {"measurement": "unfolding enthalpy (van 't Hoff)", "setting": "Thermal", "result": 102, "unit": "kcal/mol"}
    ]}
  ]
}
